Laboratory results as given in patent US20250085286A1.

Molecular target: HRP-labelled monoclonal antibody targeting PRO-C22
Assay: competitive ELISA, standard peptide against coated Biotin-… for the HRP-mAb

Chain of HRP-labelled monoclonal antibody targeting PRO-C22 (VH, as listed by the source limits assumed, chain 1 of 2): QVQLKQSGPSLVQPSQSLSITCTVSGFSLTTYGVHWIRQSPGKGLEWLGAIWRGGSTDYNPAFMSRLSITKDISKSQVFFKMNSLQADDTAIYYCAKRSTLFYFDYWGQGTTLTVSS
Chain of HRP-labelled monoclonal antibody targeting PRO-C22 (VL, as listed by the source limits assumed, chain 2 of 2): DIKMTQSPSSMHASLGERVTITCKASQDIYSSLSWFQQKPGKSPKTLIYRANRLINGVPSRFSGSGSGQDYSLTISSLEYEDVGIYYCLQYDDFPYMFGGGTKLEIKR

GPPGPPGQCDPSQCAYFASLAARPGNVKGP [30 AA standard peptide …]
IC50: 8.15 ng/mL
